The results in this text go back to PMC10681739, “High-throughput data and modeling reveal insights into the mechanisms of cooperative DNA-binding by transcription factor proteins”.

For this data set, the target named is T1, ETS1 (Homo sapiens, UniProt P14921).
T1 sequence: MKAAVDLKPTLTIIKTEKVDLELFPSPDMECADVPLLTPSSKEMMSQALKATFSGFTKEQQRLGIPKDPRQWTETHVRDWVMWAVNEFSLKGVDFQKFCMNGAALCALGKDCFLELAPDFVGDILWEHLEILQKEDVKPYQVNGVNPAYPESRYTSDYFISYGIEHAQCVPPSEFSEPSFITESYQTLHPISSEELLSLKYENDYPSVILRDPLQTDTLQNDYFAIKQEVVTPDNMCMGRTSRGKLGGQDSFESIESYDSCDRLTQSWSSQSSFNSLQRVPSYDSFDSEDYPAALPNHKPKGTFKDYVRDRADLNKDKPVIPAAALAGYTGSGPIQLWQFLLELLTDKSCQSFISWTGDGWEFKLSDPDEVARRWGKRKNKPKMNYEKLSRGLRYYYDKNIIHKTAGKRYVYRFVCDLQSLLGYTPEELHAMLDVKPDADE
The data set is described as follows: gcPBM; 1 nM ETS1. The conditions noted are these: tags: N-terminal GST (pDEST15), kept (PMC6008103); label: surface-attached array probe.

B1: Table S2 B row 2829 (dsDNA)
DNA 1: AGTGTCCGCCGCTTCCTGGTTGCGCGTCAGCGCCCA
DNA 2: TGGGCGCTGACGCGCAACCAGGAAGCGGCGGACACT
In the case of B1, the binding signal was 5900 PBM fluorescence, median of replicate spots.

B2: Table S2 B row 2565 (dsDNA)
DNA 1: AGCCACATCCTGGACAAAAGCTGTTGTCTAGTAACC
DNA 2: GGTTACTAGACAACAGCTTTTGTCCAGGATGTGGCT
With B2, the binding signal is 7070 PBM fluorescence, median of replicate spots.

B3: Table S2 B row 3509 (dsDNA)
DNA 1: CATGAGAAACATCCTGCCCAACAACCTGACTACAAG
DNA 2: CTTGTAGTCAGGTTGTTGGGCAGGATGTTTCTCATG
In the case of B3, the binding signal is 5340 PBM fluorescence, median of replicate spots.

B4: Table S2 B row 1297 (dsDNA)
DNA 1: CCTAGAACCGGAAGAGAAAGGGGCTGGGGTGCAGCA
DNA 2: TGCTGCACCCCAGCCCCTTTCTCTTCCGGTTCTAGG
On to B4, for which the binding signal was 4610 PBM fluorescence, median of replicate spots.

B5: Table S2 B row 2669 (dsDNA)
DNA 1: CCCCTCAGCTTCCGGGTGCTGCGCCCGAGGCCGAGA
DNA 2: TCTCGGCCTCGGGCGCAGCACCCGGAAGCTGAGGGG
In the case of B5, the binding signal is 9110 PBM fluorescence, median of replicate spots.

B6: Table S2 B row 1777 (dsDNA)
DNA 1: CCTTCCTTCCGCTGGCAGTAACTAGGCAGTGGACAC
DNA 2: GTGTCCACTGCCTAGTTACTGCCAGCGGAAGGAAGG
Take B6: the binding signal is 5510 PBM fluorescence, median of replicate spots.

B7: Table S2 B row 1200 (dsDNA)
DNA 1: GGTTCATTTCCTTTTCCTCCTTGGGGTATAAAAGAG
DNA 2: CTCTTTTATACCCCAAGGAGGAAAAGGAAATGAACC
Take B7: the binding signal was 8120 PBM fluorescence, median of replicate spots.

B8: Table S2 B row 2841 (dsDNA)
DNA 1: CCTGTTTCCTGCCATCTGCCCTTCCTTTGGGGTCAA
DNA 2: TTGACCCCAAAGGAAGGGCAGATGGCAGGAAACAGG
With B8, the binding signal is 8210 PBM fluorescence, median of replicate spots.

B9: Table S2 B row 3031 (dsDNA)
DNA 1: CCCGGGGGCAGGAAATGTCGCCTTACCCTCAGCCTT
DNA 2: AAGGCTGAGGGTAAGGCGACATTTCCTGCCCCCGGG
With B9, the binding signal was 4680 PBM fluorescence, median of replicate spots.

B10: Table S2 B row 2489 (dsDNA)
DNA 1: CCTTCCTTCCTGCTGTGTACGTTGGGGTCACAGCAC
DNA 2: GTGCTGTGACCCCAACGTACACAGCAGGAAGGAAGG
In the case of B10, the binding signal was 5450 PBM fluorescence, median of replicate spots.

B11: Table S2 B row 526 (dsDNA)
DNA 1: TTACTTCCTGAGGGTGCACAGGCTGGGGTCGTCTAT
DNA 2: ATAGACGACCCCAGCCTGTGCACCCTCAGGAAGTAA
For the molecule B11, the binding signal was 8570 PBM fluorescence, median of replicate spots.

B12: Table S2 B row 16 (dsDNA)
DNA 1: CCACTGCTTCCGCCTTCTCTGCTGGCTGAGGGGAGC
DNA 2: GCTCCCCTCAGCCAGCAGAGAAGGCGGAAGCAGTGG
For B12, the binding signal was 8730 PBM fluorescence, median of replicate spots.

B13: Table S2 B row 2699 (dsDNA)
DNA 1: CTCAGGAATGCGGAAGTGCTCTGTGAGCACCCACCA
DNA 2: TGGTGGGTGCTCACAGAGCACTTCCGCATTCCTGAG
For B13, the binding signal was 4940 PBM fluorescence, median of replicate spots.

B14: Table S2 B row 1623 (dsDNA)
DNA 1: ACATTTCCGTTCAGCTCAGTGTTCACGGTGCGAGAC
DNA 2: GTCTCGCACCGTGAACACTGAGCTGAACGGAAATGT
Consider B14, for which the binding signal was 32300 PBM fluorescence, median of replicate spots.

B15: Table S2 B row 2356 (dsDNA)
DNA 1: CTTCTTCCTGCTGAGACTGATACAGCCCGAAAAGCT
DNA 2: AGCTTTTCGGGCTGTATCAGTCTCAGCAGGAAGAAG
As to B15, the binding signal was 6230 PBM fluorescence, median of replicate spots.

B16: Table S2 B row 2744 (dsDNA)
DNA 1: TTAGCACATCCTGGGTACACAGAGCACAGCCTCCTC
DNA 2: GAGGAGGCTGTGCTCTGTGTACCCAGGATGTGCTAA
For B16, the binding signal was 5610 PBM fluorescence, median of replicate spots.

B17: Table S2 B row 1656 (dsDNA)
DNA 1: CTCTGAGCAGGAAGTGACAAATCCACGCAGGGCAGG
DNA 2: CCTGCCCTGCGTGGATTTGTCACTTCCTGCTCAGAG
Take B17: the binding signal was 6750 PBM fluorescence, median of replicate spots.

B18: Table S2 B row 3820 (dsDNA)
DNA 1: GGCGGCTTCCGGGATCTGCCTGGCGCTTGCTTTGTC
DNA 2: GACAAAGCAAGCGCCAGGCAGATCCCGGAAGCCGCC
As to B18, the binding signal is 8430 PBM fluorescence, median of replicate spots.

B19: Table S2 B row 3240 (dsDNA)
DNA 1: CTGTCCGCGACATCCGGGACCTGGGGGACCGCCGAT
DNA 2: ATCGGCGGTCCCCCAGGTCCCGGATGTCGCGGACAG
Turning to B19, the binding signal is 8950 PBM fluorescence, median of replicate spots.

B20: Table S2 B row 785 (dsDNA)
DNA 1: ATAGTCTCTTCCTGTGTTGCAAATCACAGGTCCACC
DNA 2: GGTGGACCTGTGATTTGCAACACAGGAAGAGACTAT
B20: the binding signal was 7860 PBM fluorescence, median of replicate spots.

B21: Table S2 B row 2465 (dsDNA)
DNA 1: CTACGACTTCCGTGATGCCTTACGGTTGCTGTAGCC
DNA 2: GGCTACAGCAACCGTAAGGCATCACGGAAGTCGTAG
Regarding B21, the binding signal was 7160 PBM fluorescence, median of replicate spots.

B22: Table S2 B row 1459 (dsDNA)
DNA 1: CAGATCCGGCGTGGACGAAGCTCGGGAACTACAACA
DNA 2: TGTTGTAGTTCCCGAGCTTCGTCCACGCCGGATCTG
On to B22, for which the binding signal was 5020 PBM fluorescence, median of replicate spots.

B23: Table S2 B row 3959 (dsDNA)
DNA 1: AAGGGCAAAGTCACAGCCACTTCCGCCCAGCGCTTC
DNA 2: GAAGCGCTGGGCGGAAGTGGCTGTGACTTTGCCCTT
B23: the binding signal is 7470 PBM fluorescence, median of replicate spots.

B24: Table S2 B row 1497 (dsDNA)
DNA 1: CAACACAGGATGTGCAGTATTATACGGCAAAGCACT
DNA 2: AGTGCTTTGCCGTATAATACTGCACATCCTGTGTTG
Consider B24, for which the binding signal is 6480 PBM fluorescence, median of replicate spots.

B25: Table S2 B row 2874 (dsDNA)
DNA 1: TGAGCAAGTTCCTTCCTGTCTGTGCTCCAGGGTTTA
DNA 2: TAAACCCTGGAGCACAGACAGGAAGGAACTTGCTCA
B25: the binding signal is 5140 PBM fluorescence, median of replicate spots.

B26: Table S2 B row 3063 (dsDNA)
DNA 1: GTATCACTTCCTGTTTTCCTCTGTAGCTTACTGCTG
DNA 2: CAGCAGTAAGCTACAGAGGAAAACAGGAAGTGATAC
As for B26, the binding signal is 30200 PBM fluorescence, median of replicate spots.

B27: Table S2 B row 3759 (dsDNA)
DNA 1: AGCGGCTCCTTCCGGCGGCGCCGGTTCCCTTCCCTC
DNA 2: GAGGGAAGGGAACCGGCGCCGCCGGAAGGAGCCGCT
For B27, the binding signal is 6670 PBM fluorescence, median of replicate spots.

B28: Table S2 B row 3173 (dsDNA)
DNA 1: GACTGCACTTCCTCTGCTTCGAGGTCGGTGCTTAGC
DNA 2: GCTAAGCACCGACCTCGAAGCAGAGGAAGTGCAGTC
Consider B28, for which the binding signal is 6100 PBM fluorescence, median of replicate spots.

B29: Table S2 B row 2667 (dsDNA)
DNA 1: GGGATCTACTTCCTCTCTCGGCCTCGGGCGCTGCAC
DNA 2: GTGCAGCGCCCGAGGCCGAGAGAGGAAGTAGATCCC
Regarding B29, the binding signal was 6350 PBM fluorescence, median of replicate spots.

B30: Table S2 B row 3968 (dsDNA)
DNA 1: GCCGCCGTTTCCTGATTGGTCGTGGGTGGCTACCTC
DNA 2: GAGGTAGCCACCCACGACCAATCAGGAAACGGCGGC
In the case of B30, the binding signal was 4470 PBM fluorescence, median of replicate spots.

B31: Table S2 B row 1434 (dsDNA)
DNA 1: GGCCGGAAGCGCTCTCGTTGGCCCAGCGGCGCTGGA
DNA 2: TCCAGCGCCGCTGGGCCAACGAGAGCGCTTCCGGCC
Take B31: the binding signal is 6040 PBM fluorescence, median of replicate spots.

B32: Table S2 B row 559 (dsDNA)
DNA 1: GCAGCATTTCCTGACTTCTTCGCCCCTGTCGTTGCA
DNA 2: TGCAACGACAGGGGCGAAGAAGTCAGGAAATGCTGC
On to B32, for which the binding signal is 6900 PBM fluorescence, median of replicate spots.

B33: Table S2 B row 980 (dsDNA)
DNA 1: GCGGGCGGAAGTGCCGAGGTTGTACCTCGGCGCTGG
DNA 2: CCAGCGCCGAGGTACAACCTCGGCACTTCCGCCCGC
For the molecule B33, the binding signal is 4750 PBM fluorescence, median of replicate spots.

B34: Table S2 B row 771 (dsDNA)
DNA 1: AACAGGAAGTGGTCTTAGAGATCATGGGGTTCAGAG
DNA 2: CTCTGAACCCCATGATCTCTAAGACCACTTCCTGTT
Take B34: the binding signal was 7400 PBM fluorescence, median of replicate spots.

B35: Table S2 B row 1677 (dsDNA)
DNA 1: TGTTTTTGTTTCCGTTTACAAACTACAACAAAGGTG
DNA 2: CACCTTTGTTGTAGTTTGTAAACGGAAACAAAAACA
As to B35, the binding signal was 5730 PBM fluorescence, median of replicate spots.

B36: Table S2 B row 3837 (dsDNA)
DNA 1: CTGCTTCCGGCCCCGGGGTTCGCTACCCCAAAATCC
DNA 2: GGATTTTGGGGTAGCGAACCCCGGGGCCGGAAGCAG
For B36, the binding signal was 27500 PBM fluorescence, median of replicate spots.

B37: Table S2 B row 717 (dsDNA)
DNA 1: AATCCCGGAAACGCGGATTCAGCGGAGCGCGGCGAC
DNA 2: GTCGCCGCGCTCCGCTGAATCCGCGTTTCCGGGATT
With B37, the binding signal was 7670 PBM fluorescence, median of replicate spots.

B38: Table S2 B row 1299 (dsDNA)
DNA 1: AGGAGTGTCACTTCCTCTTTCCTCACCAGAGCCTCC
DNA 2: GGAGGCTCTGGTGAGGAAAGAGGAAGTGACACTCCT
For B38, the binding signal was 9350 PBM fluorescence, median of replicate spots.

B39: Table S2 B row 1859 (dsDNA)
DNA 1: GTGAACTTCCTCCCCCACTGCCTATTTTTACAGCAG
DNA 2: CTGCTGTAAAAATAGGCAGTGGGGGAGGAAGTTCAC
B39: the binding signal is 4830 PBM fluorescence, median of replicate spots.
